Test results reported in the supplement of paper PMC10567573.

B1: NEUROD6 (parent)
chain: YHSPELTTPPGHGTLDNSKSMKPY

Variants of: B1
Experiment: protein stability index of a GFP-peptide fusion (GPS, HEK-293T) (PSI 1-6); higher = more stable
Settings: c terminus: a fixed tail appended
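Further: lentivirally expressed fusions sorted by FACS into six bins by GFP to DsRed ratio, PSI derived from sequencing read proportions per bin multiplied by bin number.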

Protein stability index of substitutions, site by site:
G11: M 2.48 | Y 2.07 | E 2.67 | W 1.98 | D 2.69 | I 2.21 | S 2.17 | R 2.29 | K 2.5 | C 2.06 | L 2.31 | Q 2.28 | A 2.34 | F 1.73 | T 2.08 | V 1.96 | H 1.99 | N 2.39
S3: L 2.19 | I 2.89 | E 3.81 | D 2.82 | Y 2.02 | H 2.44 | W 2.52 | F 1.86 | T 2.77 | Q 3.12 | N 1.56 | M 1.94 | V 3.42 | K 3.71 | G 3.46 | R 3.04 | C 2.33 | A 2.15
P10: R 2.3 | M 1.88 | V 2.33 | I 1.67 | G 1.78 | H 2.17 | A 1.81 | N 1.97 | D 2.74 | F 2.03 | S 1.75 | C 1.9 | Y 1.96 | T 1.7 | W 3.84 | K 2.13 | Q 2.02 | E 2.42 | L 2.13
D16: Y 2.05 | I 1.81 | T 2.05 | C 2.66 | R 1.63 | G 1.56 | K 1.86 | W 2.19 | M 2.45 | S 2.26 | A 1.65 | H 2.46 | Q 2.59 | E 2.32 | P 2.74 | L 1.98 | V 2.18 | N 2.27 | F 1.75
L6: Q 3.32 | H 3.28 | I 2.63 | N 3.25 | K 4.08 | A 2.58 | F 2.85 | E 3.86 | C 2.81 | T 3.28 | Y 1.5 | M 2.33 | R 4.02 | V 2.39 | S 3.13 | G 3.05 | W 2.97 | D 4.05
T8: V 2.04 | C 2.01 | Y 2.11 | H 2.15 | M 1.92 | N 2.52 | S 2 | W 1.84 | R 2.35 | K 2.37 | I 2.12 | G 2.47 | A 2.17 | D 3.14 | E 3.34 | L 2.1 | Q 2.52 | F 2.43
P9: W 1.94 | E 2.58 | Q 2.22 | A 2.04 | G 2.03 | S 2.22 | V 1.95 | Y 1.66 | H 3.09 | L 2.64 | M 1.8 | D 2.78 | T 2.32 | K 2.45 | C 2.18 | N 2.24 | I 2.35 | F 1.63 | R 2.29
T7: I 2.19 | S 1.96 | H 1.86 | L 2.3 | M 3.75 | Y 2.55 | F 2.12 | P 3.56 | D 3.48 | R 3.58 | V 2.49 | W 3.05 | Q 2.39 | E 4.01 | C 1.98 | G 2.97 | A 1.72 | K 2.69 | N 2.84
S18: H 2.04 | T 2 | W 1.8 | D 2.06 | R 2 | C 1.81 | G 2.39 | I 1.95 | Q 2.22 | E 2.16 | L 1.74 | K 2.43 | M 1.76 | F 1.81 | V 2.38 | N 2.54 | P 2.17 | Y 1.94 | A 2.09
N17: A 2.51 | I 2.23 | M 1.55 | T 2.15 | F 2.14 | P 2.15 | E 2.68 | Y 1.88 | C 1.69 | Q 2.52 | S 2.3 | V 2.15 | D 2.21 | G 2.68 | H 1.99 | L 1.72 | W 2.51 | R 2.01 | K 2.14
Y1: P 4.37 | K 4.93 | W 4.53 | Q 5.06 | H 4.62 | R 4.99 | C 4.53 | D 5.05 | L 4.96 | F 2.7 | E 5.28 | N 4.94 | G 4.91 | S 4.93 | T 4.76 | V 4.69 | I 4.77 | A 5.09 | M 4.74
L15: H 2.36 | R 2 | Q 2.77 | F 1.77 | C 2.1 | D 2.69 | S 2.35 | W 1.82 | G 2.24 | V 2.26 | T 3.01 | I 2.17 | Y 2.27 | N 2.46 | A 2.17 | M 1.9 | E 2.12 | K 2.2
K19: A 2.3
T14: V 1.79 | G 1.87 | R 2.07 | E 2.51 | Y 1.77 | L 1.86 | F 2.07 | N 3.02 | A 2.44 | S 2.25 | H 2.24 | K 2.07 | C 1.9 | Q 1.6 | W 2.37 | M 2.33 | I 1.9 | D 2.27
E5: Y 2.32 | K 2.14 | T 2.28 | C 1.75 | D 2.76 | R 2.66 | M 1.98 | S 2.29 | I 2.25 | A 2.71 | N 2.43 | G 2.14 | W 2.56 | V 2.14 | F 2.83 | Q 2.34 | L 1.67
H2: L 3.17 | M 4.18 | E 5.07 | F 4.01 | G 4.41 | N 4.71 | Q 3.15 | T 3.61 | Y 4.04 | I 2.17 | K 4.69 | W 3.91 | S 4.53 | V 2.25 | R 4.14 | C 3.23 | P 4.29 | A 3.41 | D 4.75
P4: D 2.97 | I 2.23 | N 2.46 | F 2.21 | Y 1.68 | S 2.44 | K 2.18 | R 2.32 | H 2.07 | C 2.38 | Q 2.46 | W 2.82 | L 1.95 | G 2.02 | A 2.6 | T 2.08 | M 2.52 | E 3.36 | V 2.11
H12: T 2.53 | Q 2.21 | L 2.29 | C 2.25 | K 2.18 | A 2.16 | D 2.56 | M 2.56 | N 2.49 | F 1.97 | W 1.43 | R 2.25 | V 2.16 | G 2.48 | S 1.96 | Y 1.71 | I 2.01 | P 2.25 | E 2.24
G13: A 2.28 | E 2.67 | D 2.46 | T 2.41 | K 2.35 | C 1.99 | I 2.06 | M 2.13 | H 2.48 | S 2.19 | F 2.18 | L 2.14 | N 2.47 | W 1.76 | V 2.05 | Q 2.11 | R 1.76 | Y 2.07
